{
  "source": "paper PMC3617561",
  "about": "(Biochemistry, 2012)",
  "key": {"USP1(S313A)": {"biological_target": "T1, USP1(S313A) (human, UniProt O94782 1-785, G670A | G671A | S313A)", "T1 sequence (looked up)": "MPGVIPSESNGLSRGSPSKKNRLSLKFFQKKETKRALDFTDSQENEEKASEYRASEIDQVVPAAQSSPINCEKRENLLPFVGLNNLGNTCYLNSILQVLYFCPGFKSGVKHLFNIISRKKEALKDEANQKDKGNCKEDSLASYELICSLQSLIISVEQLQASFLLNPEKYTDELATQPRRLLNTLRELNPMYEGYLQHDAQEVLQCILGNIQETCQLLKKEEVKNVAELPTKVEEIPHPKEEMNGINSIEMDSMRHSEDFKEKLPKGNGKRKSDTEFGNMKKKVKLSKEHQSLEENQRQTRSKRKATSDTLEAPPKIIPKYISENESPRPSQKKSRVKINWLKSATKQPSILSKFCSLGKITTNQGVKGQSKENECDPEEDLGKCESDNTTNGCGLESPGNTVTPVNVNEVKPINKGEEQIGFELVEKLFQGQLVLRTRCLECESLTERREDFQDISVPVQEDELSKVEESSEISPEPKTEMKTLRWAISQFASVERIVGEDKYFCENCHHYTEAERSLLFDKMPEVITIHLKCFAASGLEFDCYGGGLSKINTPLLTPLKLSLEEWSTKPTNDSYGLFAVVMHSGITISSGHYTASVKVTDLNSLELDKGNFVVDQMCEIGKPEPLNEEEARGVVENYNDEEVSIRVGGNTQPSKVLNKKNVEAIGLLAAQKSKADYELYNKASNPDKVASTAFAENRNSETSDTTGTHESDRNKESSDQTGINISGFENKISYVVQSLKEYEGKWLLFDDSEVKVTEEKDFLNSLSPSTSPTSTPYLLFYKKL", "test": "cell-based or functional assay"}, "USP1(S313D)": {"biological_target": "T2, USP1(S313D) (human, UniProt O94782 1-785, G670A | G671A | S313D)", "T2 sequence (looked up)": "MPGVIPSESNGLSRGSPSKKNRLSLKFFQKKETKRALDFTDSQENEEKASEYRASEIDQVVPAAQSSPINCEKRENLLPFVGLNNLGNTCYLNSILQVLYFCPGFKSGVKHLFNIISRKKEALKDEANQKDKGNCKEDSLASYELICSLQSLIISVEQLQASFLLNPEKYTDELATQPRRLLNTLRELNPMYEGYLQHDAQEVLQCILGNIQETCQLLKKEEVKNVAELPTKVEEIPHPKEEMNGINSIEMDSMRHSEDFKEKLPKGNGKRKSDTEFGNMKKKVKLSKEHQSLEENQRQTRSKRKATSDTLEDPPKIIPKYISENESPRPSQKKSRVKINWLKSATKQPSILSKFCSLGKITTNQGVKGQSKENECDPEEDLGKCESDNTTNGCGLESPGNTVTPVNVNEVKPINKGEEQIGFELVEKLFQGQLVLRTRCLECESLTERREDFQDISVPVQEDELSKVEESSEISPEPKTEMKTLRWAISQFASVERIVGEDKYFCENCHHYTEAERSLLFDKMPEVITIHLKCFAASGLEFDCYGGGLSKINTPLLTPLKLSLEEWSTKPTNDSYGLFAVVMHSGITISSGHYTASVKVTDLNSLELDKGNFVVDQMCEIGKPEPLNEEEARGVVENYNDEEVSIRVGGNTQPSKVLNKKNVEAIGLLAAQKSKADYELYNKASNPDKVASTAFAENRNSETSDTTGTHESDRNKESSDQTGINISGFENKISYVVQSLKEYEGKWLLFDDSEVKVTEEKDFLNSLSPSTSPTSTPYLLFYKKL", "test": "cell-based or functional assay"}},
  "data": [
    {"binder": "UAF1 (USP1-associated factor 1), six-His-tagged, N-terminally HA-tagged (natural protein) not shown", "values": [
      {"measurement": "kcat/Km of USP1(S313A) purified together with His-tagged UAF1, on Ub-AMC", "setting": "USP1(S313A)", "value": 1100, "unit": "M⁻¹ s⁻¹"},
      {"measurement": "kcat/Km of the copurified USP1(S313D)/UAF1 complex on Ub-AMC", "setting": "USP1(S313D)", "value": 250000, "unit": "M⁻¹ s⁻¹"}
    ]}
  ]
}
